Measured values from patent publication US5824638A, “Oral insulin delivery” (Shire Laboratories, Inc., priority 1995, dated 1998).

System: Caco-2 cells
Experiment: Transport of insulin across Caco-2 cell monolayers (Transwell, apical to basal, RIA)
Type: in vitro ADME, human
Conditions: initial transport experiments, data not shown
Description: The Caco-2 cell line has been established as the primary screening model for oral peptide delivery. Caco-2 cells are derived from a colon cancer and differentiate in culture to form intestinal epithelium similar to that found in the small intestine. The cells form a monolayer with many of the specific properties of the epithelial lining of the intestine: they form a brush border with normal enzymes, they form tight junctions between cells, and they acquire the barrier properties of an enterocyte sheet. When grown on permeable supports these cells can be used to screen drug microemulsion formulations.
Caco-2 colon carcinoma cells were obtained from American Type Culture Collection (Rockville, Md.) and maintained in culture in high glucose DMEM with 10% fetal calf serum, plus pen/strep, at 37° C., in 5% CO2. Cells were subcultured roughly every 5-7 days, 1:3 in T75 flasks, or when cells were 80-90% confluent, as determined by visual inspection. […]
For transport determinations, insulin transport enhancers were added to HBSS plus calcium and magnesium. […] Transport was measured by taking aliquots from the lower compartment, which was in contact with the basal surface of the cells. […] Aliquots were removed from each well and insulin levels determined by RIA and HPLC. Transport was calculated as percent transport per hour from top to bottom. […]

Substance: ^125 I labeled insulin: iodine-125 labeled insulin used in initial transport experiments
- Transport of labeled insulin across Caco-2 cells: no increase in transport
